Experimental data from patent US20160115500A1 (University of California, published 2016).

Target: T1, GAL4 activation domain fusion (ACT) to HAB1 (UniProt Q9CAJ0 23-511, limits assumed)
T1 construct: pACT-HAB1 fusion in yeast reporter strains; also called pACT-HAB1
T1 sequence (looked up): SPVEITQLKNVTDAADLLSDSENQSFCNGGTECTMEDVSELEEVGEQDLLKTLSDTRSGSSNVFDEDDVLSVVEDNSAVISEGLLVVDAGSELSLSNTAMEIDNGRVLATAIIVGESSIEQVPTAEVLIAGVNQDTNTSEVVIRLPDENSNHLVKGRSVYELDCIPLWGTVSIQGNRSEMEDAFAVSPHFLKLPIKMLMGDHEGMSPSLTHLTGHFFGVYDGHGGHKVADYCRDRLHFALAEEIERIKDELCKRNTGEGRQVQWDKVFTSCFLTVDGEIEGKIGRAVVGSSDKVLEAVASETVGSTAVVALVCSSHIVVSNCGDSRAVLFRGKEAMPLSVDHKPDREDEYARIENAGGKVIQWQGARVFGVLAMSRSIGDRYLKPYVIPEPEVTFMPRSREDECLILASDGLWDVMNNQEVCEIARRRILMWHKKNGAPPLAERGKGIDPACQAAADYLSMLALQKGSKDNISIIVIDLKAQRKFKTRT
Experiment: yeast two-hybrid, X-gal; lowest dichlobenil concentration giving signal

Binder	Threshold [µM]
PYR1^K59R,A160I (receptor, not shown: small tags and cut ends, pBD-PYR1 fusion in yeast) MPSELTPEERSELKNSIAEFHTYQLDPGSCSSLHAQRIHAPPELVWSIVRRFDKPQTYRHFIKSCSVEQNFEMRVGCTRDVIVISGLPANTSTERLDILDDERRVTGFSIIGGEHRLTNYKSVTTVHRFEKENRIWTVVLESYVVDMPEGNSEDDTRMFIDTVVKLNLQKLATVAEAMARNSGDGSGSQVT	100
PYR1^K59R,A160T (receptor, not shown: small tags and cut ends, pBD-PYR1 fusion in yeast) MPSELTPEERSELKNSIAEFHTYQLDPGSCSSLHAQRIHAPPELVWSIVRRFDKPQTYRHFIKSCSVEQNFEMRVGCTRDVIVISGLPANTSTERLDILDDERRVTGFSIIGGEHRLTNYKSVTTVHRFEKENRIWTVVLESYVVDMPEGNSEDDTRMFTDTVVKLNLQKLATVAEAMARNSGDGSGSQVT	100
PYR1^K59R,A160N (receptor, not shown: small tags and cut ends, pBD-PYR1 fusion in yeast) MPSELTPEERSELKNSIAEFHTYQLDPGSCSSLHAQRIHAPPELVWSIVRRFDKPQTYRHFIKSCSVEQNFEMRVGCTRDVIVISGLPANTSTERLDILDDERRVTGFSIIGGEHRLTNYKSVTTVHRFEKENRIWTVVLESYVVDMPEGNSEDDTRMFNDTVVKLNLQKLATVAEAMARNSGDGSGSQVT	100
PYR1^K59R,A160S (receptor, not shown: small tags and cut ends, pBD-PYR1 fusion in yeast) MPSELTPEERSELKNSIAEFHTYQLDPGSCSSLHAQRIHAPPELVWSIVRRFDKPQTYRHFIKSCSVEQNFEMRVGCTRDVIVISGLPANTSTERLDILDDERRVTGFSIIGGEHRLTNYKSVTTVHRFEKENRIWTVVLESYVVDMPEGNSEDDTRMFSDTVVKLNLQKLATVAEAMARNSGDGSGSQVT	100
PYR1^K59R,E141H (receptor, not shown: small tags and cut ends, pBD-PYR1 fusion in yeast) MPSELTPEERSELKNSIAEFHTYQLDPGSCSSLHAQRIHAPPELVWSIVRRFDKPQTYRHFIKSCSVEQNFEMRVGCTRDVIVISGLPANTSTERLDILDDERRVTGFSIIGGEHRLTNYKSVTTVHRFEKENRIWTVVLHSYVVDMPEGNSEDDTRMFADTVVKLNLQKLATVAEAMARNSGDGSGSQVT	100
PYR1^K59R,N167D (receptor, not shown: small tags and cut ends, pBD-PYR1 fusion in yeast) MPSELTPEERSELKNSIAEFHTYQLDPGSCSSLHAQRIHAPPELVWSIVRRFDKPQTYRHFIKSCSVEQNFEMRVGCTRDVIVISGLPANTSTERLDILDDERRVTGFSIIGGEHRLTNYKSVTTVHRFEKENRIWTVVLESYVVDMPEGNSEDDTRMFADTVVKLDLQKLATVAEAMARNSGDGSGSQVT	100
PYR1^K59R,M158G (receptor, not shown: small tags and cut ends, pBD-PYR1 fusion in yeast) MPSELTPEERSELKNSIAEFHTYQLDPGSCSSLHAQRIHAPPELVWSIVRRFDKPQTYRHFIKSCSVEQNFEMRVGCTRDVIVISGLPANTSTERLDILDDERRVTGFSIIGGEHRLTNYKSVTTVHRFEKENRIWTVVLESYVVDMPEGNSEDDTRGFADTVVKLNLQKLATVAEAMARNSGDGSGSQVT	100
PYR1^K59R,M158L (receptor, not shown: small tags and cut ends, pBD-PYR1 fusion in yeast) MPSELTPEERSELKNSIAEFHTYQLDPGSCSSLHAQRIHAPPELVWSIVRRFDKPQTYRHFIKSCSVEQNFEMRVGCTRDVIVISGLPANTSTERLDILDDERRVTGFSIIGGEHRLTNYKSVTTVHRFEKENRIWTVVLESYVVDMPEGNSEDDTRLFADTVVKLNLQKLATVAEAMARNSGDGSGSQVT	100
PYR1^K59R,I110M (receptor, not shown: small tags and cut ends, pBD-PYR1 fusion in yeast) MPSELTPEERSELKNSIAEFHTYQLDPGSCSSLHAQRIHAPPELVWSIVRRFDKPQTYRHFIKSCSVEQNFEMRVGCTRDVIVISGLPANTSTERLDILDDERRVTGFSMIGGEHRLTNYKSVTTVHRFEKENRIWTVVLESYVVDMPEGNSEDDTRMFADTVVKLNLQKLATVAEAMARNSGDGSGSQVT	100
PYR1^K59R,E141L (receptor, not shown: small tags and cut ends, pBD-PYR1 fusion in yeast) MPSELTPEERSELKNSIAEFHTYQLDPGSCSSLHAQRIHAPPELVWSIVRRFDKPQTYRHFIKSCSVEQNFEMRVGCTRDVIVISGLPANTSTERLDILDDERRVTGFSIIGGEHRLTNYKSVTTVHRFEKENRIWTVVLLSYVVDMPEGNSEDDTRMFADTVVKLNLQKLATVAEAMARNSGDGSGSQVT	100
PYR1^K59R,N167T (receptor, not shown: small tags and cut ends, pBD-PYR1 fusion in yeast) MPSELTPEERSELKNSIAEFHTYQLDPGSCSSLHAQRIHAPPELVWSIVRRFDKPQTYRHFIKSCSVEQNFEMRVGCTRDVIVISGLPANTSTERLDILDDERRVTGFSIIGGEHRLTNYKSVTTVHRFEKENRIWTVVLESYVVDMPEGNSEDDTRMFADTVVKLTLQKLATVAEAMARNSGDGSGSQVT	100
PYR1^K59R,M158S (receptor, not shown: small tags and cut ends, pBD-PYR1 fusion in yeast) MPSELTPEERSELKNSIAEFHTYQLDPGSCSSLHAQRIHAPPELVWSIVRRFDKPQTYRHFIKSCSVEQNFEMRVGCTRDVIVISGLPANTSTERLDILDDERRVTGFSIIGGEHRLTNYKSVTTVHRFEKENRIWTVVLESYVVDMPEGNSEDDTRSFADTVVKLNLQKLATVAEAMARNSGDGSGSQVT	100
PYR1^K59R,E141F (receptor, pBD-PYR1 fusion in yeast) MPSELTPEERSELKNSIAEFHTYQLDPGSCSSLHAQRIHAPPELVWSIVRRFDKPQTYRHFIKSCSVEQNFEMRVGCTRDVIVISGLPANTSTERLDILDDERRVTGFSIIGGEHRLTNYKSVTTVHRFEKENRIWTVVLFSYVVDMPEGNSEDDTRMFADTVVKLNLQKLATVAEAMARNSGDGSGSQVT	100
PYR1^K59R,N167G (receptor, not shown: small tags and cut ends, pBD-PYR1 fusion in yeast) MPSELTPEERSELKNSIAEFHTYQLDPGSCSSLHAQRIHAPPELVWSIVRRFDKPQTYRHFIKSCSVEQNFEMRVGCTRDVIVISGLPANTSTERLDILDDERRVTGFSIIGGEHRLTNYKSVTTVHRFEKENRIWTVVLESYVVDMPEGNSEDDTRMFADTVVKLGLQKLATVAEAMARNSGDGSGSQVT	100
PYR1^K59R,N167Q (receptor, not shown: small tags and cut ends, pBD-PYR1 fusion in yeast) MPSELTPEERSELKNSIAEFHTYQLDPGSCSSLHAQRIHAPPELVWSIVRRFDKPQTYRHFIKSCSVEQNFEMRVGCTRDVIVISGLPANTSTERLDILDDERRVTGFSIIGGEHRLTNYKSVTTVHRFEKENRIWTVVLESYVVDMPEGNSEDDTRMFADTVVKLQLQKLATVAEAMARNSGDGSGSQVT	100
PYR1^K59R,N167A (receptor, not shown: small tags and cut ends, pBD-PYR1 fusion in yeast) MPSELTPEERSELKNSIAEFHTYQLDPGSCSSLHAQRIHAPPELVWSIVRRFDKPQTYRHFIKSCSVEQNFEMRVGCTRDVIVISGLPANTSTERLDILDDERRVTGFSIIGGEHRLTNYKSVTTVHRFEKENRIWTVVLESYVVDMPEGNSEDDTRMFADTVVKLALQKLATVAEAMARNSGDGSGSQVT	100
PYR1^K59R,N167S (receptor, not shown: small tags and cut ends, pBD-PYR1 fusion in yeast) MPSELTPEERSELKNSIAEFHTYQLDPGSCSSLHAQRIHAPPELVWSIVRRFDKPQTYRHFIKSCSVEQNFEMRVGCTRDVIVISGLPANTSTERLDILDDERRVTGFSIIGGEHRLTNYKSVTTVHRFEKENRIWTVVLESYVVDMPEGNSEDDTRMFADTVVKLSLQKLATVAEAMARNSGDGSGSQVT	100
PYR1^K59R,A160Y (receptor, not shown: small tags and cut ends, pBD-PYR1 fusion in yeast) MPSELTPEERSELKNSIAEFHTYQLDPGSCSSLHAQRIHAPPELVWSIVRRFDKPQTYRHFIKSCSVEQNFEMRVGCTRDVIVISGLPANTSTERLDILDDERRVTGFSIIGGEHRLTNYKSVTTVHRFEKENRIWTVVLESYVVDMPEGNSEDDTRMFYDTVVKLNLQKLATVAEAMARNSGDGSGSQVT	100
PYR1^K59R,T162L (receptor, not shown: small tags and cut ends, pBD-PYR1 fusion in yeast) MPSELTPEERSELKNSIAEFHTYQLDPGSCSSLHAQRIHAPPELVWSIVRRFDKPQTYRHFIKSCSVEQNFEMRVGCTRDVIVISGLPANTSTERLDILDDERRVTGFSIIGGEHRLTNYKSVTTVHRFEKENRIWTVVLESYVVDMPEGNSEDDTRMFADLVVKLNLQKLATVAEAMARNSGDGSGSQVT	100
PYR1^K59R,H115N (receptor, pBD-PYR1 fusion in yeast) MPSELTPEERSELKNSIAEFHTYQLDPGSCSSLHAQRIHAPPELVWSIVRRFDKPQTYRHFIKSCSVEQNFEMRVGCTRDVIVISGLPANTSTERLDILDDERRVTGFSIIGGENRLTNYKSVTTVHRFEKENRIWTVVLESYVVDMPEGNSEDDTRMFADTVVKLNLQKLATVAEAMARNSGDGSGSQVT	100
PYR1^K59R,E141Q (receptor, not shown: small tags and cut ends, pBD-PYR1 fusion in yeast) MPSELTPEERSELKNSIAEFHTYQLDPGSCSSLHAQRIHAPPELVWSIVRRFDKPQTYRHFIKSCSVEQNFEMRVGCTRDVIVISGLPANTSTERLDILDDERRVTGFSIIGGEHRLTNYKSVTTVHRFEKENRIWTVVLQSYVVDMPEGNSEDDTRMFADTVVKLNLQKLATVAEAMARNSGDGSGSQVT	100
PYR1^K59R,M158A (receptor, not shown: small tags and cut ends, pBD-PYR1 fusion in yeast) MPSELTPEERSELKNSIAEFHTYQLDPGSCSSLHAQRIHAPPELVWSIVRRFDKPQTYRHFIKSCSVEQNFEMRVGCTRDVIVISGLPANTSTERLDILDDERRVTGFSIIGGEHRLTNYKSVTTVHRFEKENRIWTVVLESYVVDMPEGNSEDDTRAFADTVVKLNLQKLATVAEAMARNSGDGSGSQVT	100
PYR1^K59R,A160V (receptor, not shown: small tags and cut ends, pBD-PYR1 fusion in yeast) MPSELTPEERSELKNSIAEFHTYQLDPGSCSSLHAQRIHAPPELVWSIVRRFDKPQTYRHFIKSCSVEQNFEMRVGCTRDVIVISGLPANTSTERLDILDDERRVTGFSIIGGEHRLTNYKSVTTVHRFEKENRIWTVVLESYVVDMPEGNSEDDTRMFVDTVVKLNLQKLATVAEAMARNSGDGSGSQVT	100
